Results taken from PMC3477590 (Molecular cell, 2012).

Target: minimally biotinylated GLMN (wild-type) (human, UniProt Q92990 1-594, minimally biotinylated)
Experiment: SPR

minimally biotinylated GLMN (wild-type), sequence (Q92990 whole entry): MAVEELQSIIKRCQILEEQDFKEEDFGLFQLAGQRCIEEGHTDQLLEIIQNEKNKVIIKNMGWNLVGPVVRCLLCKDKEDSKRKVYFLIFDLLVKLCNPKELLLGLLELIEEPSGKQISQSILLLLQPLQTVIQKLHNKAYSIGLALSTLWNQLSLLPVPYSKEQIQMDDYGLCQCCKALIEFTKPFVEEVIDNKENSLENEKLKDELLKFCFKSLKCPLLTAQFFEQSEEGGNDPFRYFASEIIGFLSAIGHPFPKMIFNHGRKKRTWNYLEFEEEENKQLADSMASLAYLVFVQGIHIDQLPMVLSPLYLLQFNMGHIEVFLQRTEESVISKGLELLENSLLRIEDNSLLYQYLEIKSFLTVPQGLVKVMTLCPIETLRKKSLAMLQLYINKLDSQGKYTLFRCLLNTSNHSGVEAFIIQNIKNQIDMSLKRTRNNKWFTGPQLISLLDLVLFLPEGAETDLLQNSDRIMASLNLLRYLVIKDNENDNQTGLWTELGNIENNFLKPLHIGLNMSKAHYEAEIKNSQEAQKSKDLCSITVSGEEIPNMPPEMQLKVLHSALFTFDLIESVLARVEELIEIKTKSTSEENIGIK

Kd: 38.6 nM
B1: isolated RBX1 RING domain (domain or fragment)
chain: not shown
